# Test results: IntAct's records for PubMed 23825108
# B1: Cyanocobalamin reductase / alkylcobalamin dealkylase (Homo sapiens), Q9Y4U1 (parent)
# chain: MEPKVAELKQKIEDTLCPFGFEVYPFQVAWYNELLPPAFHLPLPGPTLAFLVLSTPAMFDRALKPFLQSCHLRMLTDPVDQCVAYHLGRVRESLPELQIEIIADYEVHPNRRPKILAQTAAHVAGAAYYYQRQDVEADPWGNQRISGVCIHPRFGGWFAIRGVVLLPGIEVPDLPPRKPHDCVPTRADRIALLEGFNFHWRDWTYRDAVTPQERYSEEQKAYFSTPPAQRLALLGLAQPSEKPSSPSPDLPFTTPAPKKPGNPSRARSWLSPRVSPPASPGP
# Variants of: B1
# Settings: with meth_human MTR
row,Variant,effect of a mutation on the interaction
1,MEPKVAELKQKIEDTLCPFGFEVYPFQVAWYNELLPPAFHLPLPGPTLAFLVLSTPAMFDRALKPFLQSCHLRMLTDPVDQCVAYHLGRVRESLPELQIEIIADYEVHPNRRPKILAQTAAHVAGAAYYYQRQDVEADPWGNQRISGVCIHPRFGGWFAIRGVVLLPGIEVPDLPPRKPHDCVPTRADRIALLEGFNFHWRDWTYWDAVTPQERYSEEQKAYFSTPPAQRLALLGLAQPSEKPSSPSPDLPFTTPAPKKPGNPSRARSWLSPRVSPPASPGP [R206W],decreasing interaction strength
2,MEPKVAELKQKIEDTLCPFGFEVYPFQVAWYNELLPPAFHLPLPGPTLAFLVLSTPAMFDRALKPFLQSCHLRMLTDPVDQCVAYHLGRVRESLPELQIEIIADYEVHPNRRPKILAQTAAHVAGAAYYYQRQDVEADPWGNQRISGVCIHPRFGGWFAIQGVVLLPGIEVPDLPPRKPHDCVPTRADRIALLEGFNFHWRDWTYRDAVTPQERYSEEQKAYFSTPPAQRLALLGLAQPSEKPSSPSPDLPFTTPAPKKPGNPSRARSWLSPRVSPPASPGP [R161Q],decreasing interaction strength
